According to paper PMC13042586, “ATP13A2 is involved in intracellular polyamine transport in lung epithelial cells” (FEBS Open Bio, 2025):

Substrate: NCCCCNCCCN
Assay: polyamine-dependent ATPase activity (Pi release, molybdate), Hill fit
Type: biochemical, Homo sapiens
Settings: microsomes of overexpressing H441 cells, 2 mM ATP, 5 mM MgCl2, 20 mM Tris-HCl pH 8.0, 10% glycerol, 1 mM DTT, 37 °C, 30 min, Hill coefficient n = 1, constant printed as Kd but from ATPase stimulation
Source text: polyamine-dependent ATPase activity (Pi release, molybdate), Hill fit on ATP13A2 | Polyamine dependence of ATP13A2 was fitted to the Hill equation

B1: ATP13A2 (Homo sapiens) (protein)
chain: MSADSSPLVGSTPTGYGTLTIGTSIDPLSSSVSSVRLSGYCGSPWRVIGYHVVVWMMAGIPLLLFRWKPLWGVRLRLRPCNLAHAETLVIEIRDKEDSSWQLFTVQVQTEAIGEGSLEPSPQSQAEDGRSQAAVGAVPEGAWKDTAQLHKSEEAVSVGQKRVLRYYLFQGQRYIWIETQQAFYQVSLLDHGRSCDDVHRSRHGLSLQDQMVRKAIYGPNVISIPVKSYPQLLVDEALNPYYGFQAFSIALWLADHYYWYALCIFLISSISICLSLYKTRKQSQTLRDMVKLSMRVCVCRPGGEEEWVDSSELVPGDCLVLPQEGGLMPCDAALVAGECMVNESSLTGESIPVLKTALPEGLGPYCAETHRRHTLFCGTLILQARAYVGPHVLAVVTRTGFCTAKGGLVSSILHPRPINFKFYKHSMKFVAALSVLALLGTIYSIFILYRNRVPLNEIVIRALDLVTVVVPPALPAAMTVCTLYAQSRLRRQGIFCIHPLRINLGGKLQLVCFDKTGTLTEDGLDVMGVVPLKGQAFLPLVPEPRRLPVGPLLRALATCHALSRLQDTPVGDPMDLKMVESTGWVLEEEPAADSAFGTQVLAVMRPPLWEPQLQAMEEPPVPVSVLHRFPFSSALQRMSVVVAWPGATQPEAYVKGSPELVAGLCNPETVPTDFAQMLQSYTAAGYRVVALASKPLPTVPSLEAAQQLTRDTVEGDLSLLGLLVMRNLLKPQTTPVIQALRRTRIRAVMVTGDNLQTAVTVARGCGMVAPQEHLIIVHATHPERGQPASLEFLPMESPTAVNGVKDPDQAASYTVEPDPRSRHLALSGPTFGIIVKHFPKLLPKVLVQGTVFARMAPEQKTELVCELQKLQYCVGMCGDGANDCGALKAADVGISLSQAEASVVSPFTSSMASIECVPMVIREGRCSLDTSFSVFKYMALYSLTQFISVLILYTINTNLGDLQFLAIDLVITTTVAVLMSRTGPALVLGRVRPPGALLSVPVLSSLLLQMVLVTGVQLGGYFLTLAQPWFVPLNRTVAAPDNLPNYENTVVFSLSSFQYLILAAAVSKGAPFRRPLYTNVPFLVALALLSSVLVGLVLVPGLLQGPLALRNITDTGFKLLLLGLVTLNFVGAFMLESVLDQCLPACLRRLRPKRASKKRFKQLERELAEQPWPPLPAGPLR
notes: full-length with C-terminal TEV site, Halo tag and 6xHis (tags kept; ATP13A2-Halo, theoretical mass 165 K), adenovirus-mediated overexpression in NCI-H441 cells, microsome fraction
K0.5: 1.00 mM
